Target: GST protein (negative control, from pGEX2TK) (UniProt P08515 1-218 = GST)
Experiment: solid phase overlay assay, 32P-labeled GST-PPP2R2C probe on blotted protein
Experimental: After 4.5 hr of incubation, the membrane was washed with Hyb75 buffer, 1 mM DTT, 1% (w/v) non-fat dry milk three times for 15 min at room temperature. The blots were analyzed by autoradiography.

GST protein (negative control, from pGEX2TK), sequence (P08515 whole entry): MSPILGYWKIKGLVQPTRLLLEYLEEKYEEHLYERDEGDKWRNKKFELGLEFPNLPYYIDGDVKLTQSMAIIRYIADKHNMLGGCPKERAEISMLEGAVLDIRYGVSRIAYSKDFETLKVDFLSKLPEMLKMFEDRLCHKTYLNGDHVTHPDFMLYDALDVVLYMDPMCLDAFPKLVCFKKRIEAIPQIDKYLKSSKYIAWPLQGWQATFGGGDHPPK

B1: GST-PPP2R2C radiolabeled recombinant protein (other)
chain: GEDTDTRKINHSFLRDHSYVTEADIISTVEFNHTGELLATGDKGGRVVIFQREPESKNAPHSQGDYDVYSTFQSHEPEFDYLKSLEIEEKINKIKWLPQQNAAHSLLSTNDKTIKLWKITERDKRPEGYNLKDEEGKLKDLSTVTSLQVPVLKPMDLMVEVSPRRIFANGHTYHINSISVNSDCETYMSADDLRINLWHLAITDRSFNIVDIKPANMEDLTEVITASEFHPHHCNLFVYSSSKGSLRLCDMPAAALCDKHSKLFEEPEDPSNRSFFSEIISSVSDVKFSHSDRYMLTRDYLTVKVWDLNMEARPIETYQVHDYLRSKLCSLYENDCIFDKFECAWNGSDSVIMTGAYNNFFRMFDRNTKRDVTLEASRESSKPRAVLKPRRVCVGGKRRRDDISVDSLDFTKKILHTAWHPAENIIAIAATNNLYIFQDKVNSDMH
modifications: 32P-phosphorylated in vitro with PKA and [32P]-γATP (site not stated)
notes: Insert is nucleotides 55-1540 of AF086924 (the bait construct starts at 52), so the first codon may be missing; also called PP2A/Bγ; protein encoded by pGEX-2TK-PPP2R2C; not shown: glutathione S-transferase encoded by the pGEX-2TK vector (Amersham Pharmacia Biotech)
B1: no binding (tested: 100 ng, 10 ng and 0.1 ng of GST loaded).

Source: patent US20040203128A1 (GENSET S A, published 2004)
